Reference: patent publication US20260232827A1 (Zymeworks, published 2026)

T1: human NaPi2a (human, UniProt Q06495 1-639)
T1 construct: whole, on cells; also called Hu NaPi2a; SLC34A1
T1 sequence (looked up): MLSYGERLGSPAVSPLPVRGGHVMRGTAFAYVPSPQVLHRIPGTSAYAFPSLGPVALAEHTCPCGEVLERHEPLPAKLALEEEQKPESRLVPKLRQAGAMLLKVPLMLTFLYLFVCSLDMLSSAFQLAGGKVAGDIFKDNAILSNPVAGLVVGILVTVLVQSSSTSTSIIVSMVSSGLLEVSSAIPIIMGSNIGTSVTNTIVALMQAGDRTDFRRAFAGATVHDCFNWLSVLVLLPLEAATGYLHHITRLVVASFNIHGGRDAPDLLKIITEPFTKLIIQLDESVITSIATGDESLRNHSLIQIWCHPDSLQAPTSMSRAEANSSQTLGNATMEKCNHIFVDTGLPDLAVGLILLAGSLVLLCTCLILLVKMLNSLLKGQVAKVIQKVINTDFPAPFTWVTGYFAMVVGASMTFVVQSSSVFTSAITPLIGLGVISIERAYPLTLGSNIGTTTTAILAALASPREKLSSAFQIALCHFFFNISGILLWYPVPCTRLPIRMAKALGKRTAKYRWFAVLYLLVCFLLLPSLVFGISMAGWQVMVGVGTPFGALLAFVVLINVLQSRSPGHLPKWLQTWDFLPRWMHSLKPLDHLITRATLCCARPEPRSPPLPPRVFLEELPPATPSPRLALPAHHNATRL

T2: human NaPi2c (human, UniProt Q8N130 1-599)
T2 construct: whole, on cells; also called Hu NaPi2c; SLC34A3
T2 sequence (looked up): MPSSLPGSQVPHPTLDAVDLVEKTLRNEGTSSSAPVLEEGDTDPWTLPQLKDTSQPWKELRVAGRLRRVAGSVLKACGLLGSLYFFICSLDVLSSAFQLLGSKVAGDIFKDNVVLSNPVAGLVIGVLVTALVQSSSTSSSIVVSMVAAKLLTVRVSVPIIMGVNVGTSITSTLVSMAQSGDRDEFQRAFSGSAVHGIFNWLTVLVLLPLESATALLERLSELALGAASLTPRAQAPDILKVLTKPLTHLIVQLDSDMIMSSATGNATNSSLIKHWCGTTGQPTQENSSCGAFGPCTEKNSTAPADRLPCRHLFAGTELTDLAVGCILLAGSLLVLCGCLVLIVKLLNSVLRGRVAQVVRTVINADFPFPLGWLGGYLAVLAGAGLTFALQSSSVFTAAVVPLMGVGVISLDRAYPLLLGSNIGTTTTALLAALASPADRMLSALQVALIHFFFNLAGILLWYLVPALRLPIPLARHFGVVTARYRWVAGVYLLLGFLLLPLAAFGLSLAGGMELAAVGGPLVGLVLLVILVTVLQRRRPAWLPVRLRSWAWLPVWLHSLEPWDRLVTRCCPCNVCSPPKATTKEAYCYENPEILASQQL

T3: human sodium-dependent phosphate transporter 2B (NaPi2b) (human, UniProt O95436 1-690)
T3 construct: UniProt ID is given as 095436 [sic]; also called hNaPi2b; Hu NaPi2b
T3 sequence: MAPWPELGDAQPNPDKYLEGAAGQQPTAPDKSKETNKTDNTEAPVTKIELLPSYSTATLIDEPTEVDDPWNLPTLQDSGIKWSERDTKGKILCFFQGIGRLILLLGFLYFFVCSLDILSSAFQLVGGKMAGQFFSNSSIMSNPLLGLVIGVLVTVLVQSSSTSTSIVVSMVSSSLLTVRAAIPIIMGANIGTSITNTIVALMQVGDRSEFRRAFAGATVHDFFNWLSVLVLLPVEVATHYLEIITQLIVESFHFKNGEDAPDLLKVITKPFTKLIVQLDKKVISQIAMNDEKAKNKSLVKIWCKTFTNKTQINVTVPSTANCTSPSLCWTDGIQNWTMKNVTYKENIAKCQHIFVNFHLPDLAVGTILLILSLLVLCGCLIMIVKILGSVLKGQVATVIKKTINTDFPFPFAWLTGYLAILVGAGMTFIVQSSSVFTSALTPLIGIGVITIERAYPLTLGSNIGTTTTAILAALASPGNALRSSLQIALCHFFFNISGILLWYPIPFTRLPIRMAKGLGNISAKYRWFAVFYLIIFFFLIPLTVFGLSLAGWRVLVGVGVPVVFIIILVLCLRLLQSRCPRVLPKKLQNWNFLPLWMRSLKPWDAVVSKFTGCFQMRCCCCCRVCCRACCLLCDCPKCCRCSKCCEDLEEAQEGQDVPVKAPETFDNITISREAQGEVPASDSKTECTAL

T4: Full length human NaPi2b (sodium-dependent phosphate transporter 2B, SLC34A2) (human, UniProt O95436 1-690)
T4 construct: also called huNaPi2b; CL_#13432
T4 sequence: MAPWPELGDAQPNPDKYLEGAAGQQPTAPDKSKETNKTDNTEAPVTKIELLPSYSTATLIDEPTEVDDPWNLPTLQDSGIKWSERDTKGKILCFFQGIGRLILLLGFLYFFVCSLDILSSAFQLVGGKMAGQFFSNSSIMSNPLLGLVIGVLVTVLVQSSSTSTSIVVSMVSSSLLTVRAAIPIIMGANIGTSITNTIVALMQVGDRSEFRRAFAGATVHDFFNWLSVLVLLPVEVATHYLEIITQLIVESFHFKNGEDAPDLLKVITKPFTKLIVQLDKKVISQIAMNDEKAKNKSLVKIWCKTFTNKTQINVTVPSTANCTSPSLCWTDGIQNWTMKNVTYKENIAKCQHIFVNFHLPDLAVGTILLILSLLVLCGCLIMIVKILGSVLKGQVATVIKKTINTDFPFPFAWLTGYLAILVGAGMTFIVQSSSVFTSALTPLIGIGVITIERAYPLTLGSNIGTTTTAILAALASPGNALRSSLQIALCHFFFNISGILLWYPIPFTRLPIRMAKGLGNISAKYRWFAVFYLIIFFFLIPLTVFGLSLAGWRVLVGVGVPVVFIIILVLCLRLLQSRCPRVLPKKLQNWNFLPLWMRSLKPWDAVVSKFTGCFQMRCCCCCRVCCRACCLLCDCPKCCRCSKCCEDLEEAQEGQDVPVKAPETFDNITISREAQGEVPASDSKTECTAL


How the values were obtained:
[1] = biological target: T1, human NaPi2a; test: flow cytometry on HEK293-6e cells transfected with human NaPi2a, 24 h at 4 C, anti-human IgG Fc AF647
[2] = biological target: T2, human NaPi2c; test: flow cytometry on HEK293-6e cells transfected with human NaPi2c, 24 h at 4 C, anti-human IgG Fc AF647
[3] = biological target: T3, human sodium-dependent phosphate …; test: flow cytometry on IGROV-1 cells (endogenous NaPi2b), 24 h at 4 C, anti-human IgG Fc AF647
[4] = biological target: T4, Full length human NaPi2b …; test: flow cytometry, transfected HEK293-6e cells, antibody 200 nM;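 also: cells incubated with antibody for 24 h at 4 °C, background taken as average MFI of unstained cells without primary antibody, at least 1,000 events per well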
[5] = biological target: T5, Construct 1 (chimeric human NaPi2b, swap in NaPi2c in 239-259) (human); test: as above
T5 construct: also called CL_#29914

Binder	binding result [1]	binding result [2]	EC50 (read off the curve) [3]	Background-Subtracted AF647 Mean Fluorescence Intensity [4]	Background-Subtracted AF647 Mean Fluorescence Intensity [5]
v18992 (MX35), reference anti-NaPi2b antibody (antibody, human IgG1, kappa) heavy 1: GQVQLVQSGAEVVKPGASVKMSCKASGYTFTGYNIHWVKQAPGQGLEWIGAIYPGNGDTSYKQKFRGRATLTADTSTSTVYMELSSLRSEDSAVYYCARGETARATFAYWGQGTLVTVSSASTKGPSVFPLAPSSKSTSGGTAALGCLVKDYFPEPVTVSWNSGALTSGVHTFPAVLQSSGLYSLSSVVTVPSSSLGTQTYICNVNHKPSNTKVDKKVEPKSCDKTHTCPPCPAPELLGGPSVFLFPPKPKDTLMISRTPEVTCVVVDVSHEDPEVKFNWYVDGVEVHNAKTKPREEQYNSTYRVVSVLTVLHQDWLNGKEYKCKVSNKALPAPIEKTISKAKGQPREPQVYVYPPSRDELTKNQVSLTCLVKGFYPSDIAVEWESNGQPENNYKTTPPVLDSDGSFALVSKLTVDKSRWQQGNVFSCSVMHEALHNHYTQKSLSLSPG heavy 2: not shown light: GDIQMTQSPSSLSASVGDRVTITCSASQDIGNFLNWYQQKPGKTVKVLIYYTSSLYSGVPSRFSGSGSGTDYTLTISSLQPEDFATYYCQQYSKLPLTFGQGTKLELKRTVAAPSVFIFPPSDEQLKSGTASVVCLLNNFYPREAKVQWKVDNALQSGNSQESVTEQDSKDSTYSLSSTLTLSKADYEKHKVYACEVTHQGLSSPVTKSFNRGEC	no binding (tested: 200 nM)	no binding (tested: 200 nM)	~2 nM	–	–
MX35 (v18992), reference anti-NaPi2b antibody (antibody, human IgG1, kappa) heavy 1: GQVQLVQSGAEVVKPGASVKMSCKASGYTFTGYNIHWVKQAPGQGLEWIGAIYPGNGDTSYKQKFRGRATLTADTSTSTVYMELSSLRSEDSAVYYCARGETARATFAYWGQGTLVTVSSASTKGPSVFPLAPSSKSTSGGTAALGCLVKDYFPEPVTVSWNSGALTSGVHTFPAVLQSSGLYSLSSVVTVPSSSLGTQTYICNVNHKPSNTKVDKKVEPKSCDKTHTCPPCPAPELLGGPSVFLFPPKPKDTLMISRTPEVTCVVVDVSHEDPEVKFNWYVDGVEVHNAKTKPREEQYNSTYRVVSVLTVLHQDWLNGKEYKCKVSNKALPAPIEKTISKAKGQPREPQVYVYPPSRDELTKNQVSLTCLVKGFYPSDIAVEWESNGQPENNYKTTPPVLDSDGSFALVSKLTVDKSRWQQGNVFSCSVMHEALHNHYTQKSLSLSPG heavy 2: not shown light: GDIQMTQSPSSLSASVGDRVTITCSASQDIGNFLNWYQQKPGKTVKVLIYYTSSLYSGVPSRFSGSGSGTDYTLTISSLQPEDFATYYCQQYSKLPLTFGQGTKLELKRTVAAPSVFIFPPSDEQLKSGTASVVCLLNNFYPREAKVQWKVDNALQSGNSQESVTEQDSKDSTYSLSSTLTLSKADYEKHKVYACEVTHQGLSSPVTKSFNRGEC	–	–	–	979 MFI	1720 MFI
v18993 (lifastuzumab), reference anti-NaPi2b antibody (antibody, human IgG1, kappa) heavy 1: GEVQLVESGGGLVQPGGSLRLSCAASGFSFSDFAMSWVRQAPGKGLEWVATIGRVAFHTYYPDSMKGRFTISRDNSKNTLYLQMNSLRAEDTAVYYCARHRGFDVGHFDFWGQGTLVTVSSASTKGPSVFPLAPSSKSTSGGTAALGCLVKDYFPEPVTVSWNSGALTSGVHTFPAVLQSSGLYSLSSVVTVPSSSLGTQTYICNVNHKPSNTKVDKKVEPKSCDKTHTCPPCPAPELLGGPSVFLFPPKPKDTLMISRTPEVTCVVVDVSHEDPEVKFNWYVDGVEVHNAKTKPREEQYNSTYRVVSVLTVLHQDWLNGKEYKCKVSNKALPAPIEKTISKAKGQPREPQVYVYPPSRDELTKNQVSLTCLVKGFYPSDIAVEWESNGQPENNYKTTPPVLDSDGSFALVSKLTVDKSRWQQGNVFSCSVMHEALHNHYTQKSLSLSPG heavy 2: not shown light: GDIQMTQSPSSLSASVGDRVTITCRSSETLVHSSGNTYLEWYQQKPGKAPKLLIYRVSNRFSGVPSRFSGSGSGTDFTLTISSLQPEDFATYYCFQGSFNPLTFGQGTKVEIKRTVAAPSVFIFPPSDEQLKSGTASVVCLLNNFYPREAKVQWKVDNALQSGNSQESVTEQDSKDSTYSLSSTLTLSKADYEKHKVYACEVTHQGLSSPVTKSFNRGEC	no binding (tested: 200 nM)	no binding (tested: 200 nM)	~3 nM	–	–
v38591 (humanized anti-NaPi2b antibody, wild-type Fc) (antibody, human IgG1, kappa, also called v38591 Wild-type; H1L2) heavy: not shown light: DVQMTQSPSSLSASVGDRVTITCRASQDVYSYLNWYQQKPGKAVKLLIYYTSRLQSGVPSRFSGSGSGTDYTLTISSLQPEDFATYYCQQYNIFPWTFGQGTKLEIKRTVAAPSVFIFPPSDEQLKSGTASVVCLLNNFYPREAKVQWKVDNALQSGNSQESVTEQDSKDSTYSLSSTLTLSKADYEKHKVYACEVTHQGLSSPVTKSFNRGEC	no binding (tested: 200 nM)	no binding (tested: 200 nM)	~2 nM	–	–
v38591 (humanized anti-NaPi2b antibody, H1L2, wild-type Fc, heavy chains with C-terminal lysine) (antibody, human IgG1, kappa, Full-size human IgG1/kappa antibody; also called v38591 (wild-type Fc)) heavy: not shown light: DVQMTQSPSSLSASVGDRVTITCRASQDVYSYLNWYQQKPGKAVKLLIYYTSRLQSGVPSRFSGSGSGTDYTLTISSLQPEDFATYYCQQYNIFPWTFGQGTKLEIKRTVAAPSVFIFPPSDEQLKSGTASVVCLLNNFYPREAKVQWKVDNALQSGNSQESVTEQDSKDSTYSLSSTLTLSKADYEKHKVYACEVTHQGLSSPVTKSFNRGEC	–	–	–	989 MFI	2160 MFI
v22277 (palivizumab, anti-RSV negative control, heterodimeric Fc) (antibody, human IgG1, kappa, also called neg control) heavy 1: GQVTLRESGPALVKPTQTLTLTCTFSGFSLSTSGMSVGWIRQPPGKALEWLADIWWDDKKDYNPSLKSRLTISKDTSKNQVVLKVTNMDPADTATYYCARSMITNWYFDVWGAGTTVTVSSASTKGPSVFPLAPSSKSTSGGTAALGCLVKDYFPEPVTVSWNSGALTSGVHTFPAVLQSSGLYSLSSVVTVPSSSLGTQTYICNVNHKPSNTKVDKKVEPKSCDKTHTCPPCPAPELLGGPSVFLFPPKPKDTLMISRTPEVTCVVVDVSHEDPEVKFNWYVDGVEVHNAKTKPREEQYNSTYRVVSVLTVLHQDWLNGKEYKCKVSNKALPAPIEKTISKAKGQPREPQVYVYPPSRDELTKNQVSLTCLVKGFYPSDIAVEWESNGQPENNYKTTPPVLDSDGSFALVSKLTVDKSRWQQGNVFSCSVMHEALHNHYTQKSLSLSPG heavy 2: not shown light: GDIQMTQSPSTLSASVGDRVTITCKSQLSVGYMHWYQQKPGKAPKLLIYDTSKLASGVPSRFSGSGSGTEFTLTISSLQPDDFATYYCFQGSGYPFTFGGGTKLEIKRTVAAPSVFIFPPSDEQLKSGTASVVCLLNNFYPREAKVQWKVDNALQSGNSQESVTEQDSKDSTYSLSSTLTLSKADYEKHKVYACEVTHQGLSSPVTKSFNRGEC	no binding (tested: 200 nM)	no binding (tested: 200 nM)	–	–	–
